T1: GST-HDA6 (Arabidopsis thaliana, UniProt Q9FML2 1-471)
T1 sequence (looked up): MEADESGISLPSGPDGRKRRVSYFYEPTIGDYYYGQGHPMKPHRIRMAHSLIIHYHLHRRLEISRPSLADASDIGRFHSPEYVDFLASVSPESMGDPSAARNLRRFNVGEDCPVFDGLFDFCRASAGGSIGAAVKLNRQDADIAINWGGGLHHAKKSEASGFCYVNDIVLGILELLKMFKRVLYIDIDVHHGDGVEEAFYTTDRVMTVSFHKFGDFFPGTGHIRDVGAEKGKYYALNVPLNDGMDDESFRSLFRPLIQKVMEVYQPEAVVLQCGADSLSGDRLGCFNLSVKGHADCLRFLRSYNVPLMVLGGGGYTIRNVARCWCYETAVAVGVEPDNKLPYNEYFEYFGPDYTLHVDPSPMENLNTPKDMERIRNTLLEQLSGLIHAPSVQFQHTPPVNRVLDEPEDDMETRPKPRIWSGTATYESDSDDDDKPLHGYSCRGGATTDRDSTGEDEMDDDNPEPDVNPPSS

T2: AtTRB3-6xHis (Arabidopsis thaliana, UniProt Q9M2X3 1-295)
T2 sequence (looked up): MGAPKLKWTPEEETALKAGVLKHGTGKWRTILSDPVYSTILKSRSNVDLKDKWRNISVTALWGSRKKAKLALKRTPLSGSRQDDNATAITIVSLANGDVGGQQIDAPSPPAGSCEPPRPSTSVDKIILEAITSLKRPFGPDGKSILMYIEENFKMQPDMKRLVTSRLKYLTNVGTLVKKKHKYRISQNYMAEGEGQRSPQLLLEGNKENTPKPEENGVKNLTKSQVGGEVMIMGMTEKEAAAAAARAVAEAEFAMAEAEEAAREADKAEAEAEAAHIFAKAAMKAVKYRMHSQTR

B1: AtTRB2-6xHis (natural protein, Arabidopsis thaliana, UniProt Q9FJW5 1-299, looked up)
chain: MGAPKQKWTPEEEAALKAGVLKHGTGKWRTILSDTEFSLILKSRSNVDLKDKWRNISVTALWGSRKKAKLALKRTPPGTKQDDNNTALTIVALTNDDERAKPTSPGGSGGGSPRTCASKRSITSLDKIIFEAITNLRELRGSDRTSIFLYIEENFKTPPNMKRHVAVRLKHLSSNGTLVKIKHKYRFSSNFIPAGARQKAPQLFLEGNNKKDPTKPEENGANSLTKFRVDGELYMIKGMTAQEAAEAAARAVAEAEFAITEAEQAAKEAERAEAEAEAAQIFAKAAMKALKFRIRNHPW
B2: GST-HDT4 (full-length) (enzyme, Arabidopsis thaliana, UniProt Q9M4T3 1-203, looked up)
chain: MEFWGIEIKPGKPFKVIQKDGFMVHASQVTLGDVEKVKKDETFAVYVKIGDDENGFMIGNLSQKFPQFSIDLYLGHEFEISHNSTSSVYLIGYRTFDAFDELDEEIDSDSELDEYMEQQIAALPQNEINPEEDDESDSDEMGLDEDDDSSDEEDVEAEAPLKVAPPSKKMPNGAFEIAKGGKKNKSSGGKKRCPFPCGPSCKK

Key:
Assay in all cases: pull-down
GST-HDA6 = biological target: T1, GST-HDA6
AtTRB3-6xHis = biological target: T2, AtTRB3-6xHis
AtTRB2-6xHis = biological target: B1

| Binder | binding result (GST-HDA6) | binding result (AtTRB3-6xHis) | binding result (AtTRB2-6xHis) |
| --- | --- | --- | --- |
| B1 | binds |  |  |
| B2 |  | binds | binds |

Reference: publication PMC4889915 (Nucleic Acids Research, 2016)
